Measurements reported in publication PMC3461317 (Biochemistry, 2010).
Where a chain is given by its changes, count along the chain named. Numbers in names are those of the source.

How the values were obtained:
[1] = tested on: CC(C)(COP(=O)(O)OP(=O)(O)OC[C@H]1O[C@@H](n2cnc3c(N)ncnc32)[C@H](O)[C@@H]1OP(=O)(O)O)[C@@H](O)C(=O)NCCC(=O)NCCSC(=O)CF; assay: purified protein; type: biochemical, Streptantibioticus cattleyicolor; details: 100 mM Tris-HCl pH 7.6, 25 °C, 0.5 mM DTNB
[2] = tested on: CC(=O)SCCNC(=O)CCNC(=O)[C@H](O)C(C)(C)COP(=O)(O)OP(=O)(O)OC[C@H]1O[C@@H](n2cnc3c(N)ncnc32)[C@H](O)[C@@H]1OP(=O)(O)O; assay: purified protein; type: biochemical, Streptantibioticus cattleyicolor; details: 100 mM Tris-HCl pH 7.6, 25 °C, 0.5 mM DTNB
crystal structure = target: the molecule itself; assay: crystal structure
SEC = target: the molecule itself; assay: SEC

Work on FlK (Streptantibioticus cattleyicolor) yielded a Km [1] of 8 ± 1 µM, a kcat [1] of 390 ± 20 s⁻¹ and a kcat/Km [1] of 5e+07 ± 1e+07 M⁻¹ s⁻¹. The Km [2] was “(2.1 ± 0.5) × 10^3 μM”, the kcat [2] was 0.06 ± 0.01 s⁻¹ and the kcat/Km [2] was 30 ± 10 M⁻¹ s⁻¹.

“FlK (Streptantibioticus cattleyicolor; F33A)” was tested, and the Km [1] was “(1.5 ± 0.4) × 10^3 μM”, the kcat [1] was 27 ± 4 s⁻¹ and the kcat/Km [1] was 18000 ± 5000 M⁻¹ s⁻¹.

“FlK (Streptantibioticus cattleyicolor; F36A)” was tested, and the Km [1] was “(7.1 ± 0.8) × 10^2 μM”, the kcat [1] was 270 ± 20 s⁻¹ and the kcat/Km [1] was 370000 ± 50000 M⁻¹ s⁻¹.

“FlK (Streptantibioticus cattleyicolor; H76A)” was tested, and the Km [1] was “(2.0 ± 0.7) × 10^1 μM”, the kcat [1] was 0.003 ± 0.0003 s⁻¹ and the kcat/Km [1] was 150 ± 50 M⁻¹ s⁻¹.

“FlK (Streptantibioticus cattleyicolor; L26A)” was tested, and the Km [1] was “(1.2 ± 0.2) × 10^2 μM”, the kcat [1] was 6.7 ± 0.1 s⁻¹ and the kcat/Km [1] was 57000 ± 8000 M⁻¹ s⁻¹.

For “FlK (Streptantibioticus cattleyicolor; T42A)”, the Km [1] was “(1.1 ± 0.4) × 10^2 μM”, the kcat [1] was 0.45 ± 0.09 s⁻¹ and the kcat/Km [1] was 4000 ± 2000 M⁻¹ s⁻¹.

For “FlK (Streptantibioticus cattleyicolor; T42C)”, the Km [1] was “(3.6 ± 1) × 10^2 μM”, the kcat [1] was 11 ± 2 s⁻¹ and the kcat/Km [1] was 30000 ± 10000 M⁻¹ s⁻¹.

With “FlK (Streptantibioticus cattleyicolor; T42S)” the Km [1] was “(6 ± 2) × 10^1 μM”, the kcat [1] was 19 ± 4 s⁻¹ and the kcat/Km [1] was 300000 ± 100000 M⁻¹ s⁻¹. For the same molecule, the Km [2] was “(6.1 ± 0.9) × 10^1 μM”, the kcat [2] was 0.01 ± 0.001 s⁻¹ and the kcat/Km [2] was 160 ± 30 M⁻¹ s⁻¹.

In the case of “FlK (Streptantibioticus cattleyicolor; V23A)”, the Km [1] is reported as “(3.0 ± 1.5) × 10^2 μM”, the kcat [1] is reported as 150 ± 30 s⁻¹ and the kcat/Km [1] is reported as 500000 ± 300000 M⁻¹ s⁻¹.

B1: FlK-F36A (enzyme, Streptomyces cattleya)
chain: MKDGMRVGERFTHDFVVPPHKTVRHLYPESPEFAEAPEVFATGFMVGLMEWACVRAMAPYLEPGEGSLGTAICVTHTAATPPGLTVTVTAELRSVEGRRLSWRVSAHDGVDEIGSGTHERAVIHLEKFNAKVRQKTPAG
B1: binds (crystal structure).

B2: FlK-E50Q (enzyme, Streptomyces cattleya)
chain: B1 chain with A36F, E50Q
B2 was tested, and the “stoichiometry N” value (SEC) was 2.
